Source: the DeepSol protein solubility set

Assay: soluble on expression in E. coli; label from the status in PepcDB or PDB records

Sequence	soluble on expression in E. coli
MGSDKIHHHHHHQQKSADVVENQFTTIKEVPITPVKDQANSGTCWSYSALGFLESEILRMGKPEVDLAEMHSVAQSYKDKGEKYVRMHGKLNFGQGGSFYDVLYVVKHYGVVPQSVMQGLNYGTKKNAHSELADGALAYLKAIVTNPNGKLTPAWKKAYDGIIDSYLGTCPETFTYEGKTYTPKSFAQYLGLNVDDYVSLTSYTHHPFYTQFALEIEDNWRGSLSYNMPINELMETMEYAINNGYSIAWGSDVSEVGFTRDGIGVLADVEGIEAKGSDQDRWVGLSRAEKQAEIIRTVNSADCPEINPTQEFRQKGYDEYSLTDDHGMVIYGIAKNQNGRKFFMVKNSWGETGKYKGIWYASYNFVAGRTMNIIVHKKAIPAAIAKKLGIRQ	not soluble
MKRIGYARTTIIEDDLKNQLTTLQSFGCDDIFQETFDPQAEISVLDEVEKLLSAGDTLIVCKLHHLGKTTRQLTDFMKMLKEKQVDFVSISEGIDTHLPTGEAYFQLMESLSAMECALIKERTLVGLHKARENGKVGGRPKIDGRTVRKIRALYYENKETIQFISNKCGVSVGTCYKYINLPETDVERLYS	not soluble
MVGINNWSSNLDAYRILQEAQSLTEEPPHFDTAFPIEPESIAPPEHHNHRYVIGQEEHRVRRLAANRNKGRPSARAFGNARNNSTRN	not soluble
MSVEFQFQALVEDTPNEKWKAIFQQLWPGYRAWFLRSGVTGRPTYLECRQALRTYMPELVPLWEQLIELTGGGDVESRFLSLWCPPPYIAGCSQGVWFDPKGQEEPILLRNYDFAPVLLEGNLLNTRWLDQRVIAMSDCLWGALDGVNEAGLSASLSFGGRTVTGTGFGIPLVLRYILELAHTTQDAVNILKRIPVHMTYSVTLLDRKGEWNTVFVSPDRQPEVVKRHAVTNYQNAIEWPQHATATHSAERLTFLEQVLHHATNSHEVLQGLLTKPLYQDAWLRGYGTLYSAIYRPLSQKVEICWPHDYSQQSFEHFTEEQKLILLSVELEHHHHHH	not soluble
MSLVPAFPHSTSPTTTVIAVPPALSLPVIETDFPRQLHPYWPRLQEKTRSWLLEKRLMPADKVEEYADGLCYTDLMAGYYIGAPDEVLQAIADYSAWFFVWDDRHDRDVIHRRATAWRQLRFQLHTALDSPRDHLHHRDPLVAGFADSMVRLYSFLGKKWNARFACHFHAVIEAYDREFHNRTRGIVPTVEEYLELRRLTFAHRIWTDLLEPSARHEIPAGVREHPGYRRAALLSQEFAAWYNDLCSLPKEIAGDEVHNLGISLIHHEGLTLEEAVTEVRRRVEECIAEFLVAEKEAVHLADGLADGTRAGHELSDAVKACVANMRNWFSTVYWFHHESGRYRVDSWDDRSTPPYVNNEAAGEGHHHHHH	soluble
MTPSPEASEGPCVSKLRNEPLGALTPYVGVVDGPEVKKSKKIHGGDSAILGTYKMQSRFNRGVLLMVNIMDYPDQNRRRIGAEKDSKSLIHLFQELNFTIFPYGNVNQDQFFKLLTMVTSSSYVQNTECFVMVLMTHGNSVEGKEKVEFRDGSVVDMQKIKDHFQTAKCPYLVNKPKVLMFPFARGDEYDLGHPKNQGNLMEPVYTAQEEKWPDTQTEGIPSPSTNVPSLADTLVCYANTPGYVTHRDLDTGSWYIQKFCQVMADHAHDTDLEDILKKTSEAVGNKRTKKGSMQTGAYDNLGFNKKLYFNPGFFNE	soluble
SLHRILLVDDEKDVGKIVSRLLAGDNYEIEQVTTGKEAMKRVLEESLPDIILLDINLPDIDGMDMLRDMKDAVRGTPIVMMTAYGSIETAVRSIKMGAMDFVQKPFNHYDFKRFINGVISARNIAGNDHCGIVGSSPQMKKVFRLVDKFALSDITILLQGESGTGKELFARAIHQKSKRRSGPFVPLDCAALSETLIESELFGHEKGAFTGATERKIGKFERAHGGTLFIDEVENLSSSNQAKLLRAVEEKQIERVGGTKAIKVDVRIVAASNIPLTEIINNGVFRKDLFYRFSQMTIAIPSLRDRVKDVDVLIRHFLAAYSEEFGNAANISEEALLLLNAYPWPGNVRELENVVKSAVILADGDILAKHLPEYIRKGSEG	soluble
MRRNIRVTLGAATIVAALGLSGCSHPEFKRSSPPAPSLPPVTSSPLEAAPITPLPAPEALIDVLSRLADPAVPGTNKVQLIEGATPENAAALDRFTTALRDGSYLPMTFAANDIAWSDNKPSDVMATVVVTTAHPDNREFTFPMEFVSFKGGWQLSRQTAEMLLAMGNSPDSTPSATSPAPAPSPTPPG	soluble
MLKGQRTWVFANKPAIIATAAVGGPFEANGRLAEDFDLLHEDLWLGEESYEKAHRVLMEEAAFQAMEKAGLEKEKVQFLIAGDLINQMTPTSFAARTLGMPYLGVFGACSTSMEGLALSAFITNYGGADYILTGASSHNAAVEKQFRYPTEYGGQKPPTAQWTVTGAGVAIVSPKGDGPRVTAATIGRVVDMGLADPFNMGGAMAPAAVDTIEAHLRDMQIDASYYDLIVTGDLGRIGRQVSLDLLRQHGIDIDEECYQDCGLLIYRDGQPVLSGASGAACSAVVVYGHLIKRMRRGELKRILAVATGALLSPLSFQQNETIPCIAHAVAIEYGGEA	not soluble
SDVYNNTAFFEQYMKRRYRENSPNESIEKPVFFQLIGHVQGKQILDLGCGDAKFGAELLEKGCYSYTGIEGSELMYEKAKKQLENKNGSVHFLNLKDYTYPSSTFDLVTSRLALHYIEHLDTIFQNVFQTLKTNGTFTFSVQHPVITSSFESLQTSGKRTIWLVDDYFKLGKRVEPWIDQEVIKYHRTTEEYFTLLQQAGFTITSLKEATPNPTYFQDEEEYKRRLRIPLFLLFSCTK	soluble
MKDQLGFRIVLCSAVFIILTQNRALADLDSESHEVNSESVGEEQWEMVQRKGMQFTLNGQPFYVNGFNTYWMMTLAADNSTRGKVTEVFQQASAVGMTVGRTWAFNDGQWRALQKSPSVYDEEVFKALDFVLSEARKYKIRLILSLVNNWDAYGGKAQYVKWGNASGLNLTSDDDFFTNPTLRNFYQSHVRTVLNRVNTFTNITYKNDPTIFAWELMNEPRCPSDPSGDKLQSWIQEMAVFVKSLDAKHLVEIGLEGFYGPSAPARTRFNPNPYAAQVGTDFIRNNQVLGIDFASVHVYPDSWISPAVSNSFLEFTSSWMQAHVEDAEMYLGMPVLFTEFGVSAHDPGFNTSFRDMMLNTVYKMTLNSTRKGGAGAGSLVWQVFPQGAEFMDDGYAVYLTRAHTASKIISLQSKRLAIFNSLCSWRCRWGCKKKNQTALDALLSHDEL	soluble
MSVVSPDPAPVPHDPQRRALLRWLVGGGALAGGLGVSAVAQGYRFGVTHEQWNLVGLTRPVRLALLTDLHYGLYIGAGSVRRWVDATLAECPDLILLGGDLVDSHFDAAARPQQTAALLAELGRLRAPLGVYAVWGNHDYGSFGRSISQSPEASRADWAARRDALRAGLAGQGVTVLLNEGRSLRDDLWLGGVDDLRMGEADSVAALRGSGTRATVLLAHNPDVLLRLRSAPGLVLSGHTHGGQVRLPLLGALKVPADPRFTMGWVRGPQGIPAYVSRGLGMSGLPVRNLCEPEITLLTLLPPGALEHHHHHH	not soluble
MGHHHHHHSHMLPPPQPGAAGGSGQPRKCSSRRNAWGNLSYADLITRAIESSPDKRLTLSQIYEWMVRCVPYFKDKGDSNSSAGWKNSIRHNLSLHSRFMRVQNEGTGKSSWWIINPDGGKSGKAPRRRAVSMDNSNKYTKSRGRAAKKKA	soluble
MSLARPQLTILHCGKLIDGHSKNTKKVVSIIVEKNTIVDIADGYVDPGEGDLAIDLNGYTVLPGLMDMHVHLSGESNPKRYTERFTMDLDDYAYRSIAYAKRTLMAGFTTVRDLGGPINTSLRDAINNNQVVGPRVYSAGKAIATTGGHADPTNGMKFELMGDPGPAEGVVNGIAEARKAVRQRYKNGADLIKITATGGVLSVAKNGENPQFQEDEIRAIVETATDYGMHVAAHAHGAEGMKRAVRAGVRSIEHGTLMDEETMALMKEKGTYYIPTISAGEFVAEKAEIDGYYPDIVRPKAKKIGPQIKKTFQKAYDAGVSIAFGTDSGVSYHGDNAKEFAYMVEAGMSEIEAIISATKTAAELLEISNTLGTIEKDKLADIIAVEGDPIENIVALESVVFVMKNGVIYKNGDNEGHHHHHH	soluble
MMHKRDQDYWIFSAELRDAKVKDDQSSKPQIVTPLGISIKRILCTGTVTSKQGDDRMTRITVADPVGNFYVIGFSNGFNPEEKAMLDKVSVDDRIMVIGKISSYRNTEGNYLFSIRPELVSKIDDEAMKFWSLKAYYFAKRRYYAIREAQKSENPAAEILKESGYTMVEAEAAMNAINNFPNYDYQKLFELIEPAMSSIGSSGAIAEARSMILDYIKNNDLDGKGCRYEDIVVAAKNAGIDQSTVDEILNSLGSLGEIFEVSLKRYKFVDTP	not soluble
SGAMYIDCDGIKLNAYLDMPKNNPEKCPLCIIIHGFTGHSEERHIVAVQETLNEIGVATLRADMYGHGKSDGKFEDHTLFKWLTNILAVVDYAKKLDFVTDIYMAGHSQGGLSVMLAAAMERDIIKALIPLSPAAMIPEIARTGELLGLKFDPENIPDELDAWDGRKLKGNYVRVAQTIRVEDFVDKYTKPVLIVHGDQDEAVPYEASVAFSKQYKNCKLVTIPGDTHCYDHHLELVTEAVKEFMLEQIAK	soluble
MEFNLSALGSAPAAEETYDVVIIGGGPAGLTAGIYAGRAQLKTVIVEKGLPGGQIAQTDEVENYPGFPEGISGPELASRMVRQAEKFGARIVMDEVLGLEKAEGGYLVRGYERNYRARAVIVATGANPRRLGVPGEDKFYGRGVSTCATCDGFFYRDKEVVVVGGGDAAVEEGIFLTKFARKVTLVHRRDELRANKVAQKRAFQNPKMHFLFSHVVTEILGEDQVTGVRLKNLKTGEEYVYPTDGVFVFIGHEPNTAFLKGVVELRPDGYIAVRDEVFTSEPGIFAAGDVADPIYRQLTTSVGAGTRAAMMAERYLAEEAEKVKG	soluble
MFGFLRKSQPVPQPQEATSDTIATQHTSAPLSNDMMLLMAEEIPMLDSNSRVRVYEILEQYDGPTICSQEELPREIREMMDL	not soluble
SLGWQISRFNRAFDTLCQQGRVGVGRSSGRFKPRVVVAIALDDQQRIVDTLFMKGLTVFARPQKIPAITGMHAGDLQPDVIFPHDPLSQNALSLALKLKRG	soluble
MGSDKIHHHHHHMGNCQILSSGDKIKLIRKKYGLRQDDIVGEEVTRNLISQIEHNKAKLTKSTAEIIIKNLKEIAKKNNLEMDVTADYLLEDELAQANSILENYVDELKNLLVYKCSRFYESLKSAEEFLIQWDIKEKKVQIYELAGDYFYIQNDLAKSVLYYEKAFDILDKTSYNKSLLSILRKLSLMYLNSLKYDRSIECCNFALNHFKNMPDDYISIFLFNTALCYYYMHYYEKALEVIDNLEPLIKDNTSKLIDVLNNKACCLSDLNRIDEAAEIYLRIFNLLNTNNIKSSQYLLILSNLIDTFAKKDVKDEVIKYLNLLLDRFPTSSQDDSYLSVACFNAAKAFIYLGDLQKAEEYLLKALTLSKNHNKYSLQEKTLSLLTDLYIQLNDFEKLEEINLEAVVLSNSQQKVCTNIFYKLLKFLNQNNKTEDIDKILNFLIKFK	not soluble
MTQIIKIDPLNPEIDKIKIAADVIRNGGTVAFPTETVYGLGANAFDGNACLKIFQAKNRPVDNPLIVHIADFNQLFEVAKDIPDKVLEIAQIVWPGPLTFVLKKTERVPKEVTAGLDTVAVRMPAHPIALQLIRESGVPIAAPSANLATRPSPTKAEDVIVDLNGRVDVIIDGGHTFFGVESTIINVTVEPPVLLRPGPFTIEELKKLFGEIVIPEFAQGKKEAEIALAPGMKYKHYAPNTRLLLVENRNIFKDVVSLLSKKYKVALLIPKELSKEFEGLQQIILGSDENLYEVARNLFDSFRELDKLNVDLGIMIGFPERGIGFAIMNRARKASGFSIIKAISDVYKYVNI	soluble
MLEDLRANSWSLRPCCMVLAYRIAHFCSVWRKKNVLNNLWAAPVLVLYRVITECLFGYEIQAAATIGRRFTIHHGYAVVINKHVVAGDDFTIRHGVTIGNRGADSLACPVIGNGVELGANVILLGDITIGNHVTIGAGSVVLDSIPDHALVVGEKARVKVST	not soluble
